Measured values: IntAct's records for PubMed 23374343

B1: Sialic acid-binding Ig-like lectin 10 (Mus musculus), Q80ZE3 (parent)
chain: MSLLLFLLSFLLDGPQGQMESYFLQVQRIVKAQEGLCIFVPCSFSSPEGKWLNRSPLYGYWFKGIRKPSLSFPVATNNKDKVLEWEARGRFQLLGDISKKNCSLLIKDVQWGDSTNYFFRMERGFERFSFKEEFRLQVEALTQKPDIFIPEVLEPGEPVTVVCLFSWTFNQCPAPSFSWMGDAVSFQESRPHTSNYSVLSFIPGLQHHDTELTCQLDFSRMSTQRTVRLRVAYAPRSLAISIFHDNVSVPDLHENPSHLEVQQGQSLRLLCTADSQPPATLSWVLEDQVLSWSSPVGSRTLALELPWVKAGDSGHYTCQAENRLGSQQHTLDLSVLYPPQDLRVTVSQANRTVLEILRNAISLPVLEGQSLCLVCVTYSNPPANVSWAWVTQTLIPIQSSEPGVLELPLVQREHEGEFTCAAQNPLGAQRISLSLSVHYPPQMSSPSCSWEAKGLHCNCSSRAWPAPSLRWRLGEGLLEGNSSNASFTVTFSSLGPWVNSSLSLLQELGPSLWLSCESWNTHGAQTTSVLLLPDKDSATAFSKGAVLGFGITALLALCLIVVIVKTLQKKGTQEEPSRPKLSRGSTILDYINVVPKTRSLARNWKAEPDAPSRSSPLDTHFPKPKKKQKDPHFTYPGCPDPTSSSQVPVSENNPEELHYAALNFSRLRLQETQDPQDTYSDYTEVRVH
partner: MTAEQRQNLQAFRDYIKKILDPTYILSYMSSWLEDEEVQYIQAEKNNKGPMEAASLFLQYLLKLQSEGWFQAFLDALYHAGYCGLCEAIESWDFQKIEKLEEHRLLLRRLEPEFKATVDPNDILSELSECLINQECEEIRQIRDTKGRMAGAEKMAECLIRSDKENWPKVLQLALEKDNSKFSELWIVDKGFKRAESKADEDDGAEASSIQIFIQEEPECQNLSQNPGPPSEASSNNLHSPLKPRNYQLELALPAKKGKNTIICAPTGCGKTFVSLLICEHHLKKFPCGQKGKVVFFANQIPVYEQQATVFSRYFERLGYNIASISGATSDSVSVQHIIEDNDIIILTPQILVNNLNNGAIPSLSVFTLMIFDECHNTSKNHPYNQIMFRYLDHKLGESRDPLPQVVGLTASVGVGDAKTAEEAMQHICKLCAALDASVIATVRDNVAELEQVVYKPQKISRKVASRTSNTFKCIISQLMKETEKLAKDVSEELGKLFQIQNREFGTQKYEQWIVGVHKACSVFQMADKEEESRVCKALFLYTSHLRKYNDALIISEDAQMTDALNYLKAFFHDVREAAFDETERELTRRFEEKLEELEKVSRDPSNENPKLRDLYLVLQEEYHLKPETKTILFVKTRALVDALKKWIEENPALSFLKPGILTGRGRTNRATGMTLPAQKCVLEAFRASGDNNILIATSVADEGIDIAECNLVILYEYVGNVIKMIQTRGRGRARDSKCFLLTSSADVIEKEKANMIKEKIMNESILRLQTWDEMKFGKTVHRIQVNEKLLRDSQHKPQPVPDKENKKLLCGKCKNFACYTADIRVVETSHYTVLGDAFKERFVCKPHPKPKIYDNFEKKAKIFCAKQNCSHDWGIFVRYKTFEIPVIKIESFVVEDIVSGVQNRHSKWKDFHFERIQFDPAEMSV

Variants of: B1
Details: with rigi_mouse Rigi

Variant	effect of a mutation on the interaction
Y590F;Y635F;Y659F;Y679F	decreasing interaction strength
